{"source": "paper PMC10246912", "target": "human angiotensin-converting enzyme 2 receptor (hACE2) (human) (UniProt Q9BYF1)", "experiment": "SPR", "data": [{"substance": "S-2P (prefusion-stabilised SARS-CoV-2 spike with K986P and V987P) (domain or fragment)", "values": [{"measurement": "Kd", "value": 0.2, "unit": "nM"}]}]}
